Among the data in the supplement of paper PMC10567573 are protein stability index values, retold here.

The nature of the data set: protein stability index of a GFP-peptide fusion (GPS, HEK-293T) (PSI 1-6); higher = more stable. Particulars: c terminus: a fixed tail appended.

± gives the standard deviation.
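Further: 24-mer peptide tiles fused after GFP, lentivirally expressed, FACS-sorted into six equal bins by GFP/DsRed ratio, decoded by Illumina sequencing, PSI is the read-weighted mean bin number.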

Take ANGGAICAVTFFTILLSYGVILHS [OR4A15]: the protein stability index came to 2.79 ± 0.25 (treatment: DMSO) and 2.84 ± 0.31 (treatment: MLN4924 1 uM, 8 h).
Take ANRWSFDGIDRWIKEIDEHAPGVP [RAB40B]: the protein stability index is, setting by setting: (treatment: DMSO) 3.92 ± 0.076; (treatment: MLN4924 1 uM, 8 h) 3.92 ± 0.12.
Take ANSSSEAPFPNVSTSLLTSAGNRT [ADAMTSL2]: the protein stability index reads like this: (treatment: DMSO) 4.52 ± 0.36; (treatment: MLN4924 1 uM, 8 h) 4.49 ± 0.29.
APGLYNHLPWQYHAGQGGLFYSAE [CCDC3] gave a protein stability index (treatment: DMSO) of 2.69 ± 0.084 and a protein stability index (treatment: MLN4924 1 uM, 8 h) of 3.25 ± 1.1.
Consider APRPGPPAGTPPPTARHFQEHPRQ [MOSPD3], for which the protein stability index by setting is: (treatment: DMSO) 4.99 ± 0.36; (treatment: MLN4924 1 uM, 8 h) 4.86 ± 0.35.
With APSKEEMLSWILRINLVAAIFSAP [PSD2], the protein stability index stood at 2.71 ± 0.32 (treatment: DMSO) and 3.03 ± 0.62 (treatment: MLN4924 1 uM, 8 h).
Take AQQLLREFEEATGEAGWGAGEGRL [FOXJ1]: the protein stability index reads like this: (treatment: DMSO) 4.74 ± 0.16; (treatment: MLN4924 1 uM, 8 h) 4.66 ± 0.34.
On to AQVPPAAPHHHHHHSHSGPEISRI [PLK2], for which the protein stability index reads like this: (treatment: DMSO) 4.09 ± 0.073; (treatment: MLN4924 1 uM, 8 h) 4.1 ± 0.13.
For ARALLEDDSDTQQVVVLVRDNGDP [PCDHGC5], the protein stability index is, setting by setting: (treatment: DMSO) 4.82 ± 0.1; (treatment: MLN4924 1 uM, 8 h) 4.79 ± 0.46.
As for AREGLAAPPRRLRSRKVSCPLTRS [FCHO1], the protein stability index runs as follows: (treatment: DMSO) 3.93 ± 0.12; (treatment: MLN4924 1 uM, 8 h) 4.13 ± 0.35.
Take ARICRLLKHPNIVRLHDSISEEGH [CAMK2A]: the protein stability index by setting is: (treatment: DMSO) 2.85 ± 0.17; (treatment: MLN4924 1 uM, 8 h) 2.84 ± 0.33.
In the case of ARKLTAQRRASTVSSVTQVEVDEN [NET1], the protein stability index by setting is: (treatment: DMSO) 5.15 ± 0.39; (treatment: MLN4924 1 uM, 8 h) 5.14 ± 0.33.
For the sequence ARKRKNRRLKQAKEEAQAEIEQYR [ATP6V1G1], the protein stability index worked out at 5.03 ± 0.38 (treatment: DMSO) and 5.13 ± 0.32 (treatment: MLN4924 1 uM, 8 h).
Turning to ARRRKKILFYCHFPDLLLTKRDSF [ALG2], the protein stability index reads like this: (treatment: DMSO) 2.4 ± 0.56; (treatment: MLN4924 1 uM, 8 h) 2.04 ± 0.55.
For ARYIDTHNRVSKEDEDIYKLRHDL [PLK2], the protein stability index by setting is: (treatment: DMSO) 3.75 ± 0.3; (treatment: MLN4924 1 uM, 8 h) 3.8 ± 0.13.
For ASDIMEPNLTYVYPHTRIQSLVSI [CLCN6], in that order: 2.38 ± 0.49 and 2.34 ± 0.38.
On to ASGPINFTMFLNLFGEKLSGTDAE [MYL5], for which the protein stability index is 2.58 ± 0.28 (treatment: DMSO) and 2.6 ± 0.4 (treatment: MLN4924 1 uM, 8 h).
ASKKTAQPWVEVVLALRNMKNLLF [MFSD9]: the protein stability index worked out at 2.75 ± 0.73 (treatment: DMSO) and 2.57 ± 0.39 (treatment: MLN4924 1 uM, 8 h).
As for ASLHPSVSPGSPPPPLPNHKYNTT [PLAGL1], the protein stability index reads like this: (treatment: DMSO) 4.58 ± 0.14; (treatment: MLN4924 1 uM, 8 h) 4.586 ± 0.043.
As to ASLNIKTTVPEVEPPQDSHSRKTV [PRPH], the protein stability index (treatment: DMSO) came to 5.21 ± 0.43 and the protein stability index (treatment: MLN4924 1 uM, 8 h) stood at 5.18 ± 0.21.
ASQCCGVHVISLHIWELSSIKNSL [PTGFR] gave a protein stability index (treatment: MLN4924 1 uM, 8 h) of 2.31 ± 0.52.
ASRQKTSLGIELHCNVSNILHMNG [ZNF396] registered a protein stability index (treatment: DMSO) of 1.97 ± 0.23 and a protein stability index (treatment: MLN4924 1 uM, 8 h) of 2.12 ± 0.14.
Regarding ASWAKPHYEFNLSRMKFRGNGALS [LCOR], the protein stability index was 2.56 ± 0.19 (treatment: DMSO) and 2.71 ± 0.24 (treatment: MLN4924 1 uM, 8 h).
Take ATFHVGGGPAQNAPHQQPPAPPSD [TFE3]: the protein stability index by setting is: (treatment: DMSO) 4.86 ± 0.16; (treatment: MLN4924 1 uM, 8 h) 4.84 ± 0.26.
With AVEGAARTTPSRREITGVQAQPGE [PALM], the protein stability index (treatment: DMSO) worked out at 5.22 ± 0.36 and the protein stability index (treatment: MLN4924 1 uM, 8 h) was 5.31 ± 0.28.
For AVMEFHVSEDFNKMNFIKTYPAHQ [WDFY1], the protein stability index stood at 1.99 ± 0.32 (treatment: DMSO) and 1.93 ± 0.28 (treatment: MLN4924 1 uM, 8 h).
In the case of AVNRARRPLARPIKRGDILPPEKG [RHOBTB1], the protein stability index (treatment: DMSO) is 3.66 ± 0.23 and the protein stability index (treatment: MLN4924 1 uM, 8 h) was 3.77 ± 0.33.
In the case of AYEIMQTLHPDASANFHSLDDIYY [FUT8], the protein stability index runs as follows: (treatment: DMSO) 2.85 ± 0.25; (treatment: MLN4924 1 uM, 8 h) 2.93 ± 0.37.
With CATGLLGSAPFLFLSLACARGSIV [SPNS1], the protein stability index runs as follows: (treatment: DMSO) 3.02 ± 0.21; (treatment: MLN4924 1 uM, 8 h) 2.88 ± 0.28.
Turning to CFFRDHSYQEEAAMELKVEDPFYW [MOG], the protein stability index (treatment: DMSO) was 3.04 ± 0.23 and the protein stability index (treatment: MLN4924 1 uM, 8 h) came out at 3.02 ± 0.24.
Regarding CGPAEERVLLTGLHAVADIHCENC [YPEL3], the protein stability index is 3.25 ± 0.33 (treatment: DMSO) and 3.58 ± 0.67 (treatment: MLN4924 1 uM, 8 h).
For the sequence CKCGECTAPRTLPSCLACNRQCLC [SPRY1], the protein stability index by setting is: (treatment: DMSO) 4.05 ± 0.2; (treatment: MLN4924 1 uM, 8 h) 4.04 ± 0.14.
CKNGETLLGAVNFFVSSINTLVTK [ARFIP2] had a protein stability index (treatment: DMSO) of 2.72 ± 0.75 and a protein stability index (treatment: MLN4924 1 uM, 8 h) of 2.64 ± 0.88.
CLEPLEQKLQEITRCKSSEEKKPG [TRIM39]: the protein stability index was 4.89 ± 0.23 (treatment: DMSO) and 5.08 ± 0.18 (treatment: MLN4924 1 uM, 8 h).
For CPGKGAWSIPWKWLFGATAVALGG [FKBP8], in that order: 2.42 ± 0.3 and 2.37 ± 0.25.
With CRMSIRRVMPTQEVQELPIPSKLL [WSB1], the protein stability index turned out to be 2.42 ± 0.2 (treatment: DMSO) and 2.52 ± 0.2 (treatment: MLN4924 1 uM, 8 h).
CSFSIERILGLDQKKDCVPLMKPH [HESX1] registered a protein stability index (treatment: DMSO) of 2.33 ± 0.19 and a protein stability index (treatment: MLN4924 1 uM, 8 h) of 2.43 ± 0.23.
